# In paper PMC3568036:
# Key:
# [1] = target: Flag-tagged EspM2 (EHEC O157:H7 Sakai)
# [2] = target: Flag-tagged EspM2 (EHEC O157:H7 Sakai); remark: listed apart in the source
substance,measurement,setting,value
GST-EspO1-2 W77A (natural protein),percent of HeLa cells with stress fibers when transfected with EspM2 and EspO1-2 W77A expression vectors (38% with the EspM2 vector only) (% of transfected cells),[1],20
GST-EspO1-2 W77H (natural protein),percent of HeLa cells with stress fibers when transfected with EspM2 and EspO1-2 W77H expression vectors (38% with the EspM2 vector only) (% of transfected cells),[1],20
glutathione-S-transferase (GST)-tagged EspO1-2 (natural protein),"percent of HeLa cells with stress fibers when transfected with both EspM2 and EspO1-2 expression vectors (38% with the EspM2 vector only), 72 h post-transfection (% of transfected cells)",[2],10
